Measurements reported in the DeepSol protein solubility set.

Assay: soluble on expression in E. coli; label from the status in PepcDB or PDB records

With “MGSDKIHHHHHHMPPSFLWISSEVDLKVSSNGDCDHVVFLVDSHFNTCTESNYESFKVSCVAGTNTKDPTEFTKIELGHRPAGSTESPYDNSGFSVEFNGVFENSKQIECVLTRSSINREKRSSISTKKISKTKPKTQLHIFCYRICEIETKIQVISGRSIGSCRCRRNNKIIIPKNADLQILQRESESSHCHYREKNHKKLFHENSLPVMKFSVFNYNTQKW” the “soluble on expression in E. coli” value was “not soluble”.

With “MTARPYEPPPDYPMIEQRWPTTVRNSSIHPHVSSAHPSYRSHSIDAAVNRSSSACFHSPHRPSFPSRGLQKYDYPICGVSPSRHLSYNHFYNQSAAEIEEMLRTRQFPEIAGIYGNDEQPSLRRFTRYNQSINSRAVPPPAPPNPPKMEKHMSHDTSGRGSIFSKSSKKPLFFMGNWTFRDRNKSARPSISEALREERPQSMNLSDIKPATRSKSGEVLGPRNHIHIESITEFPRNIETRVPVKIERSSMVRRKPSNMGGSTEVSITSSSPSPSSSSSTSTGEFKTTITVDDDHQPTAVMRPKKESDTRGTLNNNRYSFQSCVQLRKSCPDLDSTAMSNMEQHRVSKKRTRRAKEKMSQAAWKRKTVKEWSLDDVLLWLQSAQMDDVAGLLIGYDLRGEDLLQWNDQTLAQLGVSNPEIRKKLLDDLSKIIENGPEPAQEDIRNNHRTLFDIVKQTSYDQVLAVETPLTTRDITVTHGRLGCLQITKVNGANLPLKEHDCLLEINERAGEQFKSALMLTKLISDSNGAAIRFVVLRRKTNLVVEESQQKESSSSGISSSPQTPTE” the “soluble on expression in E. coli” value was “not soluble”.

With “AFSGTWQVYAQENYEEFLKALALPEDLIKMARDIKPIVEIQQKGDDFVVTSKTPRQTVTNSFTLGKEADITTMDGKKLKCTVHLANGKLVTKSEKFSHEQEVKGNEMVETITFGGVTLIRRSKRV” the “soluble on expression in E. coli” value was “soluble”.

With “MGSDKIHHHHHHMRIVHISDLHFGEELIREKVEKAVRQINEIEPDLLVITGDLSCWGIHSEMRDAYETLLDLKPDYIAVPGNHDARNIGYEFFQLYFGETKKYWKNDVVSLIAADSTQPDLDDGYIGKEQRDWIVSKIRKDRFNILALHHHIAPIPKTGRERNVLIDAGEMVELLIANGISAVLAGHRHMPYSLRLMRTHVIHAGTLGSFKVLGMPDHNYNVIEIKDNTLTLKLRFVDYGEVEIGRYTINPETPESISVYQRIAKPKKVLFLSRSNDCRTKIAEAIFNHISPNNMLAVSAGIEPAQDLDLRAVATMRELGLKINGKPRKFSEDMVSDFDAIVEFDELGVGEFWDVKKPSSAEEYREVRSEIWRRVEELVKRLLA” the “soluble on expression in E. coli” value was “not soluble”.

With “MGSDKIHHHHHHMIFLNRYGFPDQSATSRMISSLAMSMAQRGMNVTVVTSREIHNHPGSVLPATETVRGIHIQRLSSGRFGRHNLMRRSIDYLLFQVLAFAWLLRNVRATDTVIVCTDPPLLSVMSSIAIRLKGALMVNWIMDLFPETAIELGFFRKRARWLAPWLTRARNWSLRSPGMVVCPTEKMAEFLFTQGIAKDRVSVLHHWSDGEEIYPVLPEGNSLRKAWGLQDVFVVGYSGNFGRAHDFGTMLAAAKRLEHRPDIRFLLIGGGHQHAAVKTVVQDLGLQNVIFKPLQPVENLAESLSVADVHLVSLLPELEHCIIPSKFYGIMAAGRPTIFIGDPDGEVPRILRAKRCGSNVEIGETDKLTGIIEELCDDPDTTKAMGDAARRLLCTDYSREKAADAWAALIAGLQTVEPSRPHLAQGISP” the “soluble on expression in E. coli” value was “not soluble”.

For “MSLTGSSSITRTCAVIFSSGFRFMDLLHAVPYAALWHGRFEHPVLRIACILSIAAGNRVPICFESITRRIRPMTLHRPAPHPVFSLAETSGPVLGDLPGWKLSDLYPSGDSPEYKRDLEKAASMAAAFEAKWKDKLESAAKAKGEDGIGAALKDYEALDDLIGRIGSFAGLTYFSDTSNPANGKLYGDAQAKLTEISAHLLFFTLELNRIDDAVMDACMANDAAAGHYRPWLVDLRKDKPHQLDDQLEQLFLEKSMTSAAAFNRLFDETMADLRFDIDGASLSLEVTLNMLQEPEPETRRKAAEALSATFKDNLRVFTLITNTLAKDKDISDRWRNFEDIADSRHLANRVERDVVDALAAAVKKAYPRLSHRYYAMKAKWLGMEQMNYWDRNAPLPDTSNTIIPWDEAKDTVLSAYGNFAPEMADIARRFFDEEWIDAPARPGKAPGAFAHPTVPSAHPYVLVNYLGKPRDVMTLAHELGHGVHQVLAGQQGALMCATPLTLAETASVFGEMLTFRKLLDDTKDIRERKAMLARKVEDMINTVVRQIAFYEFERKLHTARKEGELTSEQIGELWLSVQAESLGPAIRISEGYETWWTYIPHFIHSPFYVYAYAFGDCLVNSLYAVYQKAEAGFQEKYFELLKAGGTKHHSELLKPFGLDATDPSFWDKGLSMIEGLIDELEELDRKQAEGHHHHHH”, the “soluble on expression in E. coli” value was “soluble”.

For “GPGSMADFPKLARIKLDDENMEKIHCAARKGQTEEVKRLVEQGIDPAIPNRFGCTALHLACKHGQIETAKYLSSICDVHGAWHGQRPLHLAVLSNKEVLVEALVEGARERGRNVEIMLNECDDVSVDDIGEHQKHTDGQTALHWCVALGDNYLPMLRLLIRLGASPTAKNKENVTSMMYAMEFKNEAAMEEMVKGVKPQQLRLDYQDKEGRTHLHYAILHNRQDYAMRFIEMGHDPQMEDDNHETPLFLALRAAMPDLLTYLLQNVDSFSVQQAPFHNGSVMVAERIQWLEFATDEQARTECIRLFQKRLDEVSFRPEETEKKRAKPTVKKMKLAPSAPLRSRSIGNASALRSRSIGGRISGK”, the “soluble on expression in E. coli” value was “soluble”.

With “MMGNDSYSSNRGSSRDVLSFLQNFLGGFYAKYGIEVKLVGGLSLSKFYYAFDAERNQFLARHFLPVLSYIKKDFNARAALGIVNVDIYEPGFNFIFGLAHPGLKVAVVSLYRLYPEFYGNPPDRKLLKERALKEVMHELGHVFGLGHCPNPKCVMHFSNSIIDTDIKSWMYCESCLRKLEKNLARSHVLEHHHHHH” the “soluble on expression in E. coli” value was “not soluble”.

In the case of “MGSDKIHHHHHHMIDLKRNSKKIPIEATGLRSRKSSLYEPNQKEDFKISRGRFSNFLTCQRCFYLDRVRGLDPPGTPGWTLNETTDLLLKKEFDYCRQKQIPHRIFASNGLSHVVPFDHPEIDNWRNSLNRGLMHRYKDTGIILTGGVDDIWQDTITEQLIIVDYKSQAKNGRVDKKDYLDDPFHEAYKIQMDFYAYLLSGMGFSVHPTSYFLVCNAKRDEDEFNKTMRFDEYLVPYKWNNDWIESRLDEMVALMNQLEVPESNHSCKNCAYADQYSKIIFSGNTSQKEITQGTLPLF”, the “soluble on expression in E. coli” value was “not soluble”.

For “MRLPALFLAHGSPMLAIEDNAYTAFLGKLGEGIRPQAVVIFTAHWMTRQPTVSAVEGTYDMIYDFSGFPRELYEVVYLARGSVEWAERVRERLAGVAEVAVDSTRGLDHGSWVLLHRLFPNADIPVVQASVLPWWTPKQLFQLGEALRPLRDEGLMVIGSGGTVHNLMALRWEGHAEADAWAMAFDDWLLSRSAAHSEEVFDYENKAPYAKQAVPTPEHLAPYWIAYGAGDRDQAPRVLFREYQYGSLSLMAVTF”, the “soluble on expression in E. coli” value was “not soluble”.

In the case of “MVERYSLSPMKDLWTEEAKYRRWLEVELAVTRAYEELGMIPKGVTERIRNNAKIDVELFKKIEEKTNHDVVAFVEGIGSMIGEDSRFFHYGLTSSDVLDTANSLALVEAGKILLESLKEFCDVLWEVANRYKHTPTIGRTHGVHAEPTSFGLKVLGWYSEMKRNVQRLERAIEEVSYGKISGAVGNYANVPPEVEEKALSYLGLKPEPVSTQVVPRDRHAFYLSTLAIVAAGIERIAVEIRHLQRTEVLEVEEPFRKGQRGSSAMPHKKNPITCERLTGLSRMMRAYVDPSLENIALWHERDISHSSVERYVFPDATQTLYYMIVTATNVVRNMKVNEERMKKNIDLTKGLVFSQRVLLKLIEKGLTRKEAYDIVQRNALKTWNSEKHFLEYLLEDEEVKKLVTKEELEELFDISYYLKHVDHIFERFEKE”, the “soluble on expression in E. coli” value was “soluble”.

In the case of “MAELLPLSPVPLYTQLKELLRERILDGTYPSHSRMPSESELGKAFDVSRITVRQALGDLQKEGLIFKIHGKGTFVAKPKAFQNVSTLQGLGESMTQMGYEVINRLRSFRHVPANALVAARLQVEEGSLVTEIRRVRLINREPVSLELTWLPKAVGEKLEKADLVTRDIFLLLENDCGIALGHADLAIDAVLADSDLTQALDVEEGSPIMRIERLTHAADGTPLDFEHLYYRGDAFQYRLRIDRQKGGKA”, the “soluble on expression in E. coli” value was “not soluble”.

With “MQTFEIKEEFLVDGKPTKLISGAIHYFRMTPAQWEDSLYNLKALGANTIETYIPWNLHEPVEGVYDFEGMKDIVAFVSLAQELGLMVILRPSVYICAEWEFGGLPAWLLKEHVRLRSTDPRFIAKVRTYFSVLLPKLVPLQVTHGGPVIMMQVENEYGSYGMEKEYLRQTKQVMEEFGIDVPLFTSDGAWEEVLDVGTLIEEDVFVTGNFGSHSKENATVMKAFMAKHDKKWPIMCMEYWDGWFNRWGEPIIKRDGQDLANEVKDMLALGSLNLYMFHGGTNFGFYNGCSARGVLDLPQVTSYDYDALLTEAGEPTEKYFHVQRAIKEVCPEVWQAEPRRKTFGSLGTFPVQNSVSLLAVKDQMMTAQETMYPITMEEAESGYGYMLYSVNLKNYHHENKLKVVEASDRLHLFADGSLQTIQYQENLREEVMIKGTPEKEWIELDVLVENLGRVNYGFKLNGPTQVKGIRGGIMQDIHFHQGYRQYALTLSADQLKKIDYTAGKNPAQPSFYQAEFTLTDLADTFIDCRSYGKGVVIVNGINLGRYWQRGPIHSLYCPKEFLKKGTNEIVIFETEGIEINELIFCGQPIVKKLLTNDFSEIGSNIHNHIDS” the “soluble on expression in E. coli” value was “not soluble”.

With “MTTVSKPDESSFDVRTLSMKTCGSRLCVGFCYCSGVVKFRKSESVGTVDIPFPSLGACPSLTLSMSPNMNFSSRMALAPTSPMKRSKSVPNILSGEYPNSVCVVANSIDENGDAGVDVTDCASTKPLVLGKDNYQDNYWDSQETNHRNADMKTPKKKVGKISKFVNICVSELKKFKNPNSGVTSIDGVERLKKEIAPLPSSPLKLTSTSTIEFQSTVTSSSPIMRSRETTSTIQRSKIISSTTKVMSDMLMDKEGKDSEISENSINCSTNLAVNKMGDVPSLSQFEDADGLQKKLTEPVELPAKSQEVYQYDVSASPAKEDLKWSTLKKIDLIVPSFRSKKRGLVAHLKSSPISKISYDGSPSKQVGVLDGEITDDGRIDSGPAKAIIPTSTENIIMPKELNISDIGEKAEVSRGLRKRHLEDSSTPSSRGPSTPAKLITDEDATNKKKRVLGKNMVDNKASSPNKEHILPIDQLNNSSAMGISSENTAPMELKATGNDPVSDGGGYKFLVTAETGRKFDEFRAKRQRLRESWMENKSPTSNKNVQTTAVTSGFQSNEQAPENLPATMECLNKEAATTPMNDNRALLTEVGPEAALAEPKLGKPLLPVENVLQYSKSPSKTAVTNKPTKTVLKANFNAPIGKINSDISFFTPKKVFGKSEYQYGPSMGKLIQMMGTGTPKKVLPEFGSSSKTALFSPRKEEHCAGAPRGSWKIAKMRVRTKLSNFYPSSRSKNSQQIRGKWLGQNIVQFSGHHSMIAQSANDKHGANLMEISAQPSTSTTAQNI” the “soluble on expression in E. coli” value was “not soluble”.

In the case of “AVKEMVYRTRLANGLTVALLPKKEFKEVYGSVTVQFGSVDTFVTEVDGDVKQYPGGIAHFLEHKLFEREDSSDLMSAFTSLGADSNAFTSFTKTNYLFSATDYFLENLDLLDELVTSAHFTEASILTEQDIIQQEREMYQDDPDSCLFFSTLANLYPGTPLATDIVGSEESISQINLTNLQENFTKFYKPVNMSLFLVGNFDVERVQDYFESKELKDSDFQEVAR”, the “soluble on expression in E. coli” value was “not soluble”.

For “SGRPVAELLRKIHTSKALLDMLKRLGKEPLNPGALLSQLKQAVFAVQQSSPLIQEGIKYLEEHLHEVHFGEKVVCHCDVNHNNWLLSEDNQLYLIDWDGAMIADPAMDLGPLLYHYVEKPAWESWLSMYGIELTESLRLRMAWYVLSETITFIAWHKAKGNDKE”, the “soluble on expression in E. coli” value was “not soluble”.

For “MSIALLAAATSSMAQSLDKMNWLNEPQQWEIKEGKALVMDVPAKTDFWRISHYGFTVDDGPFYYATYGGEFEVKVKITGNYVTTFDQMGLMLRIDHENWIKAGVEYVDGKQNVSAVVTHRTSDWSVVQLPDAPRSLWIKAVRRLDAVEIFFSRDDKEYTMIRTCWLQDNCPVMVGLMGACPDGKGFTATFEEFKVTPLADQRRLEWAKKQADKLEHHHHHH”, the “soluble on expression in E. coli” value was “not soluble”.
